Laboratory results reported in patent publication US20210388105A1 (ELPISCIENCE SUZHOU BIOPHARMA, published 2021).

T1: human CD39 (full length, on cells) (human, UniProt P49961 1-510)
T1 sequence: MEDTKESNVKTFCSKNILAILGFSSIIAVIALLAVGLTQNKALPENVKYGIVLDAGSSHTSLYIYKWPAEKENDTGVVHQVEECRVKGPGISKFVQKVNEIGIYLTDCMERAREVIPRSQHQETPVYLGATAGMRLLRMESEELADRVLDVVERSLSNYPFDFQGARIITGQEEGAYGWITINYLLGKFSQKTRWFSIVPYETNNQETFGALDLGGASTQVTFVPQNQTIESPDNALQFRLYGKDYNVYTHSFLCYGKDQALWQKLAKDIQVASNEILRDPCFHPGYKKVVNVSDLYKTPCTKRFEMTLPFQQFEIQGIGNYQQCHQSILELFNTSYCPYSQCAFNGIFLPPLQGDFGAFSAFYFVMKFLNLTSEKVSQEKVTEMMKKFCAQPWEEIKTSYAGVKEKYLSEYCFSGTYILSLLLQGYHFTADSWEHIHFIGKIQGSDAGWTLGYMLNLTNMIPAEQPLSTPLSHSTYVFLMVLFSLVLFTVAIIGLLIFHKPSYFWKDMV

T2: KW27-2 (human CD39 mutant, C-terminal EGFP) (human, UniProt P49961 1-510)
T2 construct: expressed on HEK293F cells; not shown: C-terminal EGFP fusion (vector pCMV3-GFPSpark)
T2 chain: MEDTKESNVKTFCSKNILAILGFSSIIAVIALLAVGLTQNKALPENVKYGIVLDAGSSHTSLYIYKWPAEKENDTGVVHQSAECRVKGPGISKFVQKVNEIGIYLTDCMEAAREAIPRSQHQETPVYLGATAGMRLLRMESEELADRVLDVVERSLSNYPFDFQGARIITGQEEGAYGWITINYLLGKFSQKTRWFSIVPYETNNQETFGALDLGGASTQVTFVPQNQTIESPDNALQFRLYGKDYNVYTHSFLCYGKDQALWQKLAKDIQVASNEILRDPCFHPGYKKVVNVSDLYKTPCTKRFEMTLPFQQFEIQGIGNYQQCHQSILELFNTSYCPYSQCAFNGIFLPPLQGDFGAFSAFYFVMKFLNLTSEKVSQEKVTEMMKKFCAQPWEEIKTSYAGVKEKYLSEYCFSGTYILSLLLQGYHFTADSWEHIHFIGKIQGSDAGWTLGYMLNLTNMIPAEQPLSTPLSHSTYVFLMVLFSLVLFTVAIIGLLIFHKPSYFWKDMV

T3: KW27-16 (human CD39 mutant, C-terminal EGFP) (human, UniProt P49961 1-510)
T3 construct: expressed on HEK293F cells; not shown: C-terminal EGFP fusion (vector pCMV3-GFPSpark)
T3 chain: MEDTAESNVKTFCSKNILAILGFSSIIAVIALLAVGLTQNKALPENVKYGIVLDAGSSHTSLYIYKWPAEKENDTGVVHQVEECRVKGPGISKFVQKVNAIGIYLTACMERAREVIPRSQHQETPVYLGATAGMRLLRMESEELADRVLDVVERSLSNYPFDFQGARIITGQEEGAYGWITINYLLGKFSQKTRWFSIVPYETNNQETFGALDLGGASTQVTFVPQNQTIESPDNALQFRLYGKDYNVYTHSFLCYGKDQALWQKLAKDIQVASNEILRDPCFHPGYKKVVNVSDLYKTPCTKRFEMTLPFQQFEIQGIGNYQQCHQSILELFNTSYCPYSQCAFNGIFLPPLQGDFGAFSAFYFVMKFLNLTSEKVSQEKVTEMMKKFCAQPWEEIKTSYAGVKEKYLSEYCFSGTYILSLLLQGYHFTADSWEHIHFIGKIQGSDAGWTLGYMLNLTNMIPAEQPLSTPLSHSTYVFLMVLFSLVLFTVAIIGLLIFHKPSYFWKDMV


Legend:
[1] = target: T1, human CD39 (full length, on cells); assay: cell-based or functional assay
[2] = target: T2, KW27-2 (human CD39 mutant, C-terminal …); assay: FACS on transfected HEK293F cells, relative binding = AlexaFluor647 / GFP
Description: (§1) Briefly, the human CD39 mutants were generated by gene synthesis and then cloned into an expression vector pCMV3-GFPSpark. The vectors containing the validated mutated sequences were prepared and transfected into HEK293F cells. Three days post transfection, the cells were collected to testing EGFP for transgene expression. A range of dosages of antibodies (start from 100 nM, 3-folds dilution, 11 points) were tested on the 20 generated mutants and stained by AlexFluor647 labelled anti-hIgG by FACS. Antibody binding was descripted as relative binding which is derived from AlexFluor647 intensity divided by GFP intensity.

[3] = target: T3, KW27-16 (human CD39 mutant, C-terminal …); assay: as above
Description: as §1

| SK-MEL-28 cell based ATPase inhibition % at 10 nM [1] | binding result [2] | binding result [3] | Binder |
| --- | --- | --- | --- |
| 57% |  |  | mAb14 (antibody, V domains shown, mouse hybridoma antibody) VH: EVKLEESGGGLVQPGGSMKLSCVASGFTFSKYWMNWVRQSPEKGLEWVAEIRLKSNKYGTHYAESVKGRFTISRDDSKNNVYLQMNNLRPEDTGIYYCTTQLDLYWFFDVWGAGTTVTVSS VL: DIVMTQSPAILSVTPGDRVSLSCRASQSISDYLHWYQQKSHESPRLLIKYASQSISGIPSRFSGSGSGSNFTLSINSVEPEDVGVYFCQNGHSLPLTFGAGTKLELR |
|  | binds | binds | Antibody T895 (antibody, V domains shown, also called 31895) VH: EVQLQQSGPELVKPGASVKMSCKASGYTFTDYNMHWVKQSHGRTLEWIGYIVPLNGGSTFNQKFKGRATLTVNTSSRTAYMELRSLTSEDSAAYYCARGGTRFAYWGQGTLVTVSA VL: not shown |

Second part, the binder before the results:

| Binder | SK-MEL-28 cell based ATPase inhibition % at 10 nM [1] | binding result [2] | binding result [3] |
| --- | --- | --- | --- |
| c34 (antibody, V domains shown, its making is not described; also called chimeric antibody c34) VH: EIQVQQSGPELVKPGASVKVSCKASGYSFTDYNMYWVKQSHGKSLEWIGFIDPYNGYTSYNQKFKGKATLTIDKSSSTAFMHLNSLTSEDSAVYYCAIYGYDDAYYFDYWGQGTTLTVSS VL: QIVLTQSPAIMSASPGEKVTITCSATSSVSYMHWFRQKPGTSPKLWIYSTSNLASGVPARFSGSGSGTSYSLTISRMAAEDAATYYCQQRITYPFTFGSGTKLEIT |  | binds | no binding |
| hu23.H5L5 (antibody, V domains shown, humanized c23) VH: QVQLVQSGAEVKKPGASVKVSCKASGYNLKDTFLHWVRQAPGQGLEWMGRIDPANGNIKYDPKFQGRVTITADTSANTAYMELISLRSEDTAVYYCANSPYYYGSGYRIFDVWGQGTTVTVSS VL: QIVLTQSPATLSLSPGERATLSCSAFSSVNYMHWYQQKPGQAPRLLIYTTSNLASGIPTRFSGSGSGTSYTLTISSLEPEDFAVYYCQQRSTYPFTFGQGTKLEIK |  | binds | binds |
| Antibody 9-8B (antibody, V domains shown) VH: QIQLVQSGPELKKPGETVKISCKASGYTFTHYGMNWVKQAPGKGLKWMGWINTYTGELTYADDFKGRFAFSLETSASTAYLQINNLKNEDTATYFCARRAYYRYDYVMDYWGQGTSVTVSS VL: DIVMTQSQKFMSTSVGDRVSVTCKASHNVGTNVAWYQQKPGQSPKALIYSASYRYSGVPGRFTGSGSGTDFTLTISNVQSEDLAEYFCHQYNNYPYTFGGGTKLEIK | 21% | binds | binds |
